Results published in publication PMC8473724.

Assays:
PTRH2 = assay: anti-FLAG co-immunoprecipitation, SILAC LC-MS; details: Ramos PTP1B KO cells; n = 3; read off a plot; scale: log10 SILAC ratio
TNK2 = assay: anti-FLAG co-immunoprecipitation, SILAC LC-MS; details: Ramos PTP1B KO cells; n = 3; read off a plot; scale: log10 SILAC ratio
ARHGAP12 iso 2 = assay: anti-FLAG co-immunoprecipitation, SILAC LC-MS; details: Ramos PTP1B KO cells; n = 3; read off a plot; scale: log10 SILAC ratio
ANKLE2 = assay: anti-FLAG co-immunoprecipitation, SILAC LC-MS; details: Ramos PTP1B KO cells; n = 3; read off a plot; scale: log10 SILAC ratio
CDC20 = assay: anti-FLAG co-immunoprecipitation, SILAC LC-MS; details: Ramos PTP1B KO cells; n = 3; read off a plot; scale: log10 SILAC ratio
ARHGAP12 iso 3 = assay: anti-FLAG co-immunoprecipitation, SILAC LC-MS; details: Ramos PTP1B KO cells; n = 3; read off a plot; scale: log10 SILAC ratio
[1] = target: intersectin-2 (ITSN2) [human (endogenous in Ramos)]; assay: anti-FLAG co-immunoprecipitation, SILAC LC-MS; details: Ramos PTP1B KO cells; n = 3; read off a plot; scale: log10 SILAC ratio
GRB2 = GRB2 (UniProt P62993); assay: anti-Myc co-IP, anti-GRB2 immunoblot; details: reference: CD22-Myc wild type; sites Y807

In the case of “FLAG-PTP1B WT (protein tyrosine phosphatase 1B) (from UniProt P18031) D181A; Y46F”, the enrichment (PTRH2) is reported as 1.4, the enrichment (TNK2) is reported as 0.6 and the enrichment (ARHGAP12 iso 2) is reported as 1.6. For the same substance, the enrichment (ANKLE2) was 0.97, the enrichment (CDC20) was 0.88 and the enrichment (ARHGAP12 iso 3) was 1.2.

For “FLAG-PTP1B WT (protein tyrosine phosphatase 1B) mutant D181A; Y46F [not stated] / intersectin-2 (ITSN2) [human (endogenous in Ramos)] chain 1 Y46F, chain 1 D181A”, the enrichment [1] was 0.5.

With CD22 (from UniProt P20273) Y807F the “binding against the reference” value (GRB2) was “lost”.
